Experimental data published in paper PMC2156165.

Molecular target: γ-tubulin of pig brain γ-tubulin complexes (pig (endogenous in brain))
Experiment: quantitative immunoblot of the purified complexes

With “76p of pig brain γ-tubulin complexes (76-kD polypeptide, pig orthologue of h76p = hGCP4) (natural protein)” the abundance of 76p against γ-tubulin in the purified complexes was 5 fold.
